Test results from publication PMC3948114.

Target: HLA-B*27:05-KK10 tetramer
Experiment: tetramer staining of transfected HEK293 cells
Conditions: 0.2 μg tetramer; parent: est. 100; read off a plot

In the case of “FLAG-tagged 3DL1*001 (from UniProt P43629) A167G”, the percent of parent is reported as 76 % of ·001.
For “FLAG-tagged 3DL1*001 (from UniProt P43629) D230A”, the percent of parent was 30 % of ·001.
With “FLAG-tagged 3DL1*001 (from UniProt P43629) E282A” the percent of parent was 22 % of ·001.
In the case of “FLAG-tagged 3DL1*001 (from UniProt P43629) E282Q”, the percent of parent is reported as 44 % of ·001.
In the case of “FLAG-tagged 3DL1*001 (from UniProt P43629) L166A”, the percent of parent is reported as 180 % of ·001.
In the case of “FLAG-tagged 3DL1*001 (from UniProt P43629) L166V”, the percent of parent is reported as 20 % of ·001.
For “FLAG-tagged 3DL1*001 (from UniProt P43629) M165A”, the percent of parent was 52 % of ·001.
“FLAG-tagged 3DL1*001 (from UniProt P43629) P199A” was tested, and the percent of parent was 10 % of ·001.
“FLAG-tagged 3DL1*001 (from UniProt P43629) Y200A” was tested, and the percent of parent was 8 % of ·001.
For “FLAG-tagged 3DL1*001 (from UniProt P43629) Y200F”, the percent of parent was 36 % of ·001.
